In patent EP3470426A1 (Numab Therapeutics AG, dated 2019):
Where “and” joins values, the source holds several entries; their conditions need not be identical. Equal entries are not always repeated. Where two headings read alike, the source gives them in different places.

What was measured:
human PD-L1 on cells [1] = molecular target: T1, human PD-L1 on cells (human, UniProt Q9NZQ7 19-290); test: cell-based or functional assay
[2] = molecular target: human PD-L1-Fc chimeric protein (human); test: SPR, PD-L1-Fc captured, binder injected
human PD-L1 on cells [3] = molecular target: T1, human PD-L1 on cells; test: cell-based or functional assay; remark: listed apart in the source
human PD-L1 on cells [4] = molecular target: T1, human PD-L1 on cells; test: cell-based or functional assay; remark: listed apart in the source
[5] = molecular target: T2, CD137 on Jurkat NFkB reporter cells (human, UniProt Q07011 24-255); test: cell-based or functional assay
[6] = molecular target: T2, CD137 on Jurkat NFkB reporter cells; test: cell-based or functional assay; remark: listed apart in the source
[7] = molecular target: T2, CD137 on Jurkat NFkB reporter cells; test: cell-based or functional assay; remark: listed apart in the source
[8] = molecular target: T2, CD137 on Jurkat NFkB reporter cells; test: cell-based or functional assay; remark: listed apart in the source
[9] = molecular target: T2, CD137 on Jurkat NFkB reporter cells; test: cell-based or functional assay; remark: listed apart in the source
[10] = molecular target: T2, CD137 on Jurkat NFkB reporter cells; test: cell-based or functional assay; remark: listed apart in the source
[11] = molecular target: T2, CD137 on Jurkat NFkB reporter cells; test: cell-based or functional assay; remark: listed apart in the source
human PD-L1 on cells [12] = molecular target: T1, human PD-L1 on cells; test: cell-based or functional assay; remark: listed apart in the source
[13] = molecular target: T2, CD137 on Jurkat NFkB reporter cells; test: cell-based or functional assay; remark: listed apart in the source

B1: PRO997 (scFv)
scFv: DIQMTQSPSSLSASVGDRVTITCQASQSIGTYLAWYQQKPGKAPKLLIYRAFILASGVPSRFSGSGSGTDFTLTISSLQPEDFATYYCQSNFYSDSTTIGPNAFGTGTKVTVLGGGGGSGGGGSGGGGSGGGGSQVQLQESGPGLVKPSETLSLTCKVSGFSFNSDYWIYWIRQPPGKGLEWIGSIYGGSSGNTQYASWAQGRVTISVDSSKNQFSLKLSSVTAADTAVYYCARGYVDYGGATDLWGQGTLVTVSS
notes: also called 37-20-B03sc01; PRO977
IC50, NFAT-luciferase reporter gene assay (human PD-L1 on cells [1]): 0.0111 µg/mL
fold higher affinity against the STR graft of clone 33-03-G02 (PRO1126) [2]: ~2 fold
fold higher potency on VH4 framework than on VH1 framework (PRO1013), NFAT reporter (human PD-L1 on cells [3]): ~2 fold
EC50 of IL-2 secretion, PBMC stimulated with SEA (human PD-L1 on cells [4]): 0.0409 µg/mL

B2: PRO885 (bispecific antibody)
chain: DIQMTQSPSSLSASVGDRVTITCQASQSINDYLAWYQQKPGKAPKLLIYKASTLASGVPSRFSGSGSGTDFTLTISSLQPEDFATYYCQQGYIITDIDNVFGTGTKVTVLGGGGGSQVQLQESGPGLVKPSETLSLTCKVSGFSFSNSYWICWIRQPPGKGLEWIGCTFVGSSDSTYYANWAKGRVTISVDSSKNQFSLKLSSVTAADTAVYYCARHPSDAVYGYANNLWGQGTLVTVSSGGGGSGGGGSGGGGSGGGGSIQMTQSPSSLSASVGDRVTITCQASQSINNVLAWYQQKPGKAPKLLIYRASTLASGVPSRFSGSGSGTDFTLTISSLQPEDFATYYCQSSYGNYGDFGTGTKVTVLGGGGGSQVQLQESGPGLVKPSETLSLTCKVSGFSFSSGYDMCWIRQPPGKGLEWIGCVVAGSVDITYYASWAKGRVTISVDSSKNQFSLKLSSVTAADTAVYYCARKDAYSDAFNLWGQGTLVTVSS
EC50, NFkB-luciferase reporter, PD-L1 expressing CHO cells, 6h [5]: 0.00784 µg/mL
EC50, NFkB-luciferase reporter, PD-L1 expressing CHO cells, 6h, + HSA [5]: 0.00792 µg/mL
EC50, NFkB-luciferase reporter, HCC827 cells without IFNg [6]: 0.0115 µg/mL and 0.0131 µg/mL and 0.013 µg/mL
EC50, NFkB-luciferase reporter, CHO-PD-L1 cells [7]: 0.00513 µg/mL and 0.00486 µg/mL and 0.0063 µg/mL
EC50, NFkB-luciferase reporter, CHO-PD-L1 cells [8]: 0.0117 µg/mL
IC50, NFAT-luciferase reporter gene assay (human PD-L1 on cells [1]): 0.137 µg/mL
EC50, NFkB-luciferase reporter, HCC827 cells stimulated with IFNg [9]: 0.00927 µg/mL and 0.00888 µg/mL and 0.00923 µg/mL
max. activation (%), NF-kB reporter, CHO-PD-L1 [10]: 499%
max. activation (%), NF-kB reporter, HCC827 +IFNg [10]: 134%
max. activation (%), NF-kB reporter, HCC827 -IFNg [10]: 111%
EC50, NFkB-luciferase reporter, PD-L1 expressing CHO cells, 24h [11]: 0.0138 µg/mL
EC50, NFkB-luciferase reporter, PD-L1 expressing CHO cells, 24h, + HSA [11]: 0.0149 µg/mL
EC50 of IL-2 secretion, PBMC + CHO cells expressing PD-L1 (50000/well), anti-CD3 1 ug/ml (human PD-L1 on cells [12]): 0.0129 µg/mL
EC50 of IL-2 secretion, PBMC + CHO cells expressing PD-L1 (50000/well), anti-CD3 2 ug/ml (human PD-L1 on cells [12]): 0.052 µg/mL
EC50 of IL-2 secretion, PBMC + CHO cells expressing PD-L1 (100000/well), anti-CD3 1 ug/ml (human PD-L1 on cells [12]): 0.0862 µg/mL
EC50 of IL-2 secretion, PBMC + CHO cells expressing PD-L1 (100000/well), anti-CD3 2 ug/ml (human PD-L1 on cells [12]): 0.0419 µg/mL
EC50 of IL-2 secretion, PBMC + CHO cells expressing PD-L1 (200000/well), anti-CD3 1 ug/ml (human PD-L1 on cells [12]): 0.0806 µg/mL
EC50 of IL-2 secretion, PBMC + CHO cells expressing PD-L1 (200000/well), anti-CD3 2 ug/ml (human PD-L1 on cells [12]): 0.0301 µg/mL
EC50 of IL-2 secretion, PBMC stimulated with SEA (human PD-L1 on cells [4]): 0.0399 µg/mL
EC50, NFkB-luciferase reporter, HCC827 with IFNy stimulation, 24h [13]: 0.00751 µg/mL
EC50, NFkB-luciferase reporter, HCC827 without IFNy stimulation, 24h [13]: 0.00952 µg/mL
